Our source for the binding result and Kd values is PMC4066585 (Journal of immunology (Baltimore, Md. : 1950), 2014).

The target in one test is proenzyme C3bB (Homo sapiens, UniProt P01024;P00751). In words: SPR.
The next test concerns the target C3b (human, UniProt P01024). Kind of test: SPR.

Chain of proenzyme C3bB (P00751 whole entry, looked up, chain 1 of 2): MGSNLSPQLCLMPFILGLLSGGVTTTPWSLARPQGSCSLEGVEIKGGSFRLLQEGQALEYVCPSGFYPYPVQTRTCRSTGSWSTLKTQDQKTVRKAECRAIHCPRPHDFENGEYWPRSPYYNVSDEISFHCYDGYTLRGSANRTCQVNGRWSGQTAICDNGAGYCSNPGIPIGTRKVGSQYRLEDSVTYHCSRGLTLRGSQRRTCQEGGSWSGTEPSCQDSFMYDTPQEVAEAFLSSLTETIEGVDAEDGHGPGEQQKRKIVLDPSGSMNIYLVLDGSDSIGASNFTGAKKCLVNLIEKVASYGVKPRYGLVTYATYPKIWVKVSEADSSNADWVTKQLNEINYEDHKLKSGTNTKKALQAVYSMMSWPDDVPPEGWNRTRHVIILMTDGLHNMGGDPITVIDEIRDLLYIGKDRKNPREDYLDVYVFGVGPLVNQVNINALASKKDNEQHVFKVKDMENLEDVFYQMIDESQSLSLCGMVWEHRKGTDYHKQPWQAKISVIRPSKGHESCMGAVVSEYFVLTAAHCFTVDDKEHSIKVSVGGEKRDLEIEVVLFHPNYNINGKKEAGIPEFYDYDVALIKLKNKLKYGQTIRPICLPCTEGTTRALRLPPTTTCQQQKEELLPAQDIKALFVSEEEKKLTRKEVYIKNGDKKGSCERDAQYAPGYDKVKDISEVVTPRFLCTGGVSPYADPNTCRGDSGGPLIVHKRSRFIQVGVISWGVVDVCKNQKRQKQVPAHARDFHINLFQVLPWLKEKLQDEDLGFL
Chain of proenzyme C3bB (P01024 whole entry, looked up, chain 2 of 2): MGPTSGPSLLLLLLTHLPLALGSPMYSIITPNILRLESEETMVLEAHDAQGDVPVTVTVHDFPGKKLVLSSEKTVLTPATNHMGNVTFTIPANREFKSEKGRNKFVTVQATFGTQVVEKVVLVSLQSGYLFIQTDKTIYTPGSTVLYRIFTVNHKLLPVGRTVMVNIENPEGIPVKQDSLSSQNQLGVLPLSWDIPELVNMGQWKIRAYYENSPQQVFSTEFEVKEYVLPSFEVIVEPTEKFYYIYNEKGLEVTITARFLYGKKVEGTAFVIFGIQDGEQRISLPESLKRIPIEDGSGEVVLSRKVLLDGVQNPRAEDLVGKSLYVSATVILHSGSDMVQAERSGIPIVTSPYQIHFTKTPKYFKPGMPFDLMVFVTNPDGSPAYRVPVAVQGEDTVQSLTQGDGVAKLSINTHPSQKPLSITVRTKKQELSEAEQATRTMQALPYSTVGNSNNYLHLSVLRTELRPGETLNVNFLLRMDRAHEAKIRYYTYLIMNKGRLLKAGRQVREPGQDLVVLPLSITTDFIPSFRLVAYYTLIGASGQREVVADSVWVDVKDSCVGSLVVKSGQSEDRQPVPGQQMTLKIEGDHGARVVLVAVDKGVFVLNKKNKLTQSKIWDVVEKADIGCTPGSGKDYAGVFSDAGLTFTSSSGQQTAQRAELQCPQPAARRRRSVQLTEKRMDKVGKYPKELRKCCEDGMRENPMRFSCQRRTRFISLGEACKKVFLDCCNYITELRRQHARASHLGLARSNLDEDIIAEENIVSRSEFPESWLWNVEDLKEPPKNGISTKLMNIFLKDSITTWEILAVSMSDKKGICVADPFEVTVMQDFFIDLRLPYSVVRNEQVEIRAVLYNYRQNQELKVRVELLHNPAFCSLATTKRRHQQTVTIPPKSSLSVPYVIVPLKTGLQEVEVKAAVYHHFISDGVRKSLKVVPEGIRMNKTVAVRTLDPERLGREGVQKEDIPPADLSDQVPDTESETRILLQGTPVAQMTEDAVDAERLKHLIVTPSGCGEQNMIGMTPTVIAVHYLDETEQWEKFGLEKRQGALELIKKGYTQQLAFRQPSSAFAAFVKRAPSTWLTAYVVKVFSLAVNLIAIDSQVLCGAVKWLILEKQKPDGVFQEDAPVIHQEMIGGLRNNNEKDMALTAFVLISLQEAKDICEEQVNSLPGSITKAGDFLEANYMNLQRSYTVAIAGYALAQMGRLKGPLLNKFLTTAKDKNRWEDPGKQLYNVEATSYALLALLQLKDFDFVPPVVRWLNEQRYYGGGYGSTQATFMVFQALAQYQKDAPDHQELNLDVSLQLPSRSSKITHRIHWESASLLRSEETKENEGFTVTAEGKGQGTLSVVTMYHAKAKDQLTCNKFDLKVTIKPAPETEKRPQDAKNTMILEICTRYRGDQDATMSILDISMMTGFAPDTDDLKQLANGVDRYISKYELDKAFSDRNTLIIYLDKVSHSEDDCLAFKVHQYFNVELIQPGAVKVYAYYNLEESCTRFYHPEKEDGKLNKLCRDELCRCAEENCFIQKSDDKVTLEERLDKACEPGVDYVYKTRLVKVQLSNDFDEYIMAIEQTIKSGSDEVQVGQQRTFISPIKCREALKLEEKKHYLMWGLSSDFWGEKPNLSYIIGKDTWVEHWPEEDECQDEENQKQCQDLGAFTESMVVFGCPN

B1: mAb 3E7 (antibody, V domains shown)
VH: EVQLQESGPSLVKPSQTLSLTCSVTGDSITSDYWNWIRKFPGNKLESMGYITYSGTTYYNPSLKSRISITRDTSKNQYYLQLNSVTSEDTATYYCARGVDYEPSYYFDYWGQGTTLTVSS
VL: DIQMTQTTSSLSASLGDRVTISCSASQGISNYLNWYQQKPDGTVKLLIYYTSSLHSGVPSRFSGSGSGTDYSLTISNLEPEDIATYYCQQYSNLPWTFGGGTKLEIK
As to B1, the binding result in the test with proenzyme C3bB was “no binding (tested: 20 μg/ml)”.

B2: mAb H17 (antibody, V domains shown)
VH: EVQLQESGPSLVKPSQTLSLTCTVSGDSITSDYWNWIRQAPGKGLESMGYITYSGTTYYNPSLKSRVTISRDTSKNQYYMELSSLRSEDTATYYCARGVDYEPSYYFDYWGQGTLVTVSS
VL: DIQMTQSPSSLSASVGDRVTITCSASQGISNYLNWYQQKPGKAPKLLIYYTSSLHSGVPSRFSGSGSGTDYSLTISSLQPEDIATYYCQQYSNLPWTFGQGTKVEIK
For the molecule B2, the binding result with proenzyme C3bB is reported as “no binding (tested: 20 μg/ml)”. This molecule had a Kd with C3b of 28 nM.
